The values below come from article PMC2768864 (The Journal of Experimental Medicine, 2009).

The chains are these.
B1: Ixodes ricinus contact phase inhibitor (Ir-CPI) (natural protein)
chain: ANHKGRGRPAKCKLPPDDGPCRARIPSYYFDRKTKTCKEFMYGGCEGNENNFENITTCQEECRAKKV
B2: plasma kallikrein (enzyme)
heavy: GCLTQLYENAFFRGGDVASMYTPNAQYCQMRCTFHPRCLLFSFLPASSINDMEKRFGCFLKDSVTGTLPKVHRTGAVSGHSLKQCGHQISACHRDIYKGVDMRGVNFNVSKVSSVEECQKRCTSNIRCQFFSYATQTFHKAEYRNNCLLKYSPGGTPTAIKVLSNVESGFSLKPCALSEIGCHMNIFQHLAFSDVDVARVLTPDAFVCRTICTYHPNCLFFTFYTNVWKIESQRNVCLLKTSESGTPSSSTPQENTISGYSLLTCKRTLPEPCHSKIYPGVDFGGEELNVTFVKGVNVCQETCTKMIRCQFFTYSLLPEDCKEEKCKCFLRLSMDGSPTRIAYGTQGSSGYSLRLCNTGDNSVCTTKTSTR
light: not shown
B3: activated factor XII (FXIIa) (enzyme, human)
heavy: IPPWEAPKEHKYKAEEHTVVLTVTGEPCHFPFQYHRQLYHKCTHKGRPGPQPWCATTPNFDQDQRWGYCLEPKKVKDHCSKHSPCQKGGTCVNMPSGPHCLCPQHLTGNHCQKEKCFEPQLLRFFHKNEIWYRTEQAAVARCQCKGPDAHCQRLASQACRTNPCLHGGRCLEVEGHRLCHCPVGYTGAFCDVDTKASCYDGRGLSYRGLARTTLSGAPCQPWASEATYRNVTAEQARNWGLGGHAFCRNPDNDIRPWCFVLNRDRLSWEYCDLAQCQTPTQAAPPTPVSPRLHVPLMPAQPAPPKPQPTTRTPPQSQTPGALPAKREQPPSLTRNGPLSCGQRLRKSLSSMTR
light: VVGGLVALRGAHPYIAALYWGHSFCAGSLIAPCWVLTAAHCLQDRPAPEDLTVVLGQERRNHSCEPCQTLAVRSYRLHEAFSPVSYQHDLALLRLQEDADGSCALLSPYVQPVCLPSGAARPSETTLCQVAGWGHQFEGAEEYASFLQEAQVPFLSLERCSAPDVHGSSILPGMLCAGFLEGGTDACQGDSGGPLVCEDQAAERRLTLQGIISWGSGCGDRNKPGVYTDVAYYLAWIREHTVS

What all share (assay): SPR
For orientation: In SPR one partner is held on a chip, and binding of the other changes the refractive index at the surface.

The target in assay [1] is B3.
For assay [2], the target named is activated factor XI (FXIa) (human, UniProt P03951 19-387; P03951 388-625).
activated factor XI (FXIa), sequence (P03951 19-387, chain 1 of 2): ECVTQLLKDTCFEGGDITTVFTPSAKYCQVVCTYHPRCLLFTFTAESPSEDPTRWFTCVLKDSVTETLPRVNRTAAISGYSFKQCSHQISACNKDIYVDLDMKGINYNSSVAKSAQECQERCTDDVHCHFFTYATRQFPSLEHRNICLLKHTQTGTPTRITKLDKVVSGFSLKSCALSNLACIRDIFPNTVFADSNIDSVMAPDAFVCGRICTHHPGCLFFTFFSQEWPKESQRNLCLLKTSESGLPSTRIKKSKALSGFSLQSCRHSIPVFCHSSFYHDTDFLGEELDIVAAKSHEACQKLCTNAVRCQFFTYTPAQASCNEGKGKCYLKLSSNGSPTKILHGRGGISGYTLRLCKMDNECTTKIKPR
activated factor XI (FXIa), sequence (P03951 388-625, chain 2 of 2): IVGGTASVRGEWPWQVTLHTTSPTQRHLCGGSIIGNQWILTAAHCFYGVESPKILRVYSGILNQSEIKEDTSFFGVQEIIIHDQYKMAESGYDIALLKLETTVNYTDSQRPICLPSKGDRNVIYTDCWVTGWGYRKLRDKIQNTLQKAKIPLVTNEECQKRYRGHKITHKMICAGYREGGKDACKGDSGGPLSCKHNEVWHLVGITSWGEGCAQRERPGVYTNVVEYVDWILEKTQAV
The target in assay [3] is B2.
The target of assay [4] is B1.

With B1, the values for the Ka in assay [1], in assay [2] and in assay [3] were 1.68e+08 M⁻¹, 3.83e+08 M⁻¹ and 4.51e+06 M⁻¹, respectively.
As to B2, in assay [4], the “ka1 (two-state model, formation of AB)” value came to 34900 M⁻¹ s⁻¹; the “ka2 (two-state model, forward conformation change)” value worked out at 0.00834 s⁻¹; the “kd1 (two-state model, dissociation of AB)” value was determined as 0.0532 s⁻¹; the “kd2 (two-state model, backward conformation change)” value was determined as 0.00142 s⁻¹.
Taken in the same sequence, the figures for B3 were 219000 M⁻¹ s⁻¹, 0.655 s⁻¹, 0.0946 s⁻¹ and 0.105 s⁻¹.
